Values quoted from earlier work as cited in article PMC7862380.

Key:
[1] = target: Met1-linked di-ubiquitin (Homo sapiens) (UniProt P0CG48)
[2] = target: Lys63-linked di-ubiquitin (Homo sapiens) (UniProt P0CG48)

OTULIN, sequence (Q96BN8 whole entry): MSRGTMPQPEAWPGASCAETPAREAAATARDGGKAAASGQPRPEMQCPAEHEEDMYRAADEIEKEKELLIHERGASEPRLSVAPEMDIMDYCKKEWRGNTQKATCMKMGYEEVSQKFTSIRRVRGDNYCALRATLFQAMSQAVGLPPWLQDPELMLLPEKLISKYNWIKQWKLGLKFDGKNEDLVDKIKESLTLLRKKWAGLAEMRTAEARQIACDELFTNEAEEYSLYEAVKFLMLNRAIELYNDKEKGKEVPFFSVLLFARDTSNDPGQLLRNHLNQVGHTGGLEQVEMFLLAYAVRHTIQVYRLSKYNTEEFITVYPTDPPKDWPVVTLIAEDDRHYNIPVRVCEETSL

Kd [1]: 0.12 µM | Kd [2]: 12 µM
Substance: OTULIN (from UniProt Q96BN8)
